In patent US20140287419A1, “Compositions Having Dicamba Decarboxylase Activity and Methods of Use” (priority 2013, published 2014):
Changes are numbered by the printed parent chain.

B1: 26 (protein, listed as Variovorax paradoxus)
chain: MATHMAPMKNKIALEEHFAIDLTIADSQVYARPEVWQGLKSNLLDFEQQRLEKMDEWGTEFSILSLNSPAVQGIPDAKRAIEVAQRANDVLAEQVKRHPTRFGGFAALPMQDPEASARELERCVNQLGFHGFLVNGFSQVGDENIVVYYDDARFNDFWTAAAALKKPFYMHPRDPLLAREPIYDGAHWLTGPTWAFAMETAIHALRLMSSGMFDRHPALQMILGHFGEGIPFNIWRVDHILRKGRRGMPCDKEIGEYLRSNVHITTSGNFRTPTLLSTMLEVGSDRIMYSVDYPFEKHEDAARWFDTCEISENDRQKIGRDNARKLFGLK
B2: 23 (protein, listed as Aplysina aerophoba)
chain: MAIDIDARSQPGLETARRAMSRRDFLGGAAAFGITAAATTALPASTAAGEEEDLFLLGLEEHFATAELRRLNGIQFPQGTPRFDINDVGAGRIADMDAAGIDIQVLSALTPGAQNLPGAEGVAYARRLNSWVAHEVIPAYPGRFRAFATLPLSEPQAAADELEYAVRELGFLGCMTYGAVDGKFLDHADFVPVLARAETLDVPIYIHPNWASPQVMDTYYNGLGNEWVSRVLSGAGYGWHQEVALQCLRMIASGVFDRFPRLQIIVGHMGEGLPFFYWRFGDDLARITADTLEKPVQQYFHDNFWITTSAFFRDELLRLVLSVMGEDRVMFAVDYPFVSNKVGADWFRAVDLPRNVKEKIAHKNAERLLKIGPF
B3: 21 (protein, listed as Agrobacterium tumefaciens)
chain: MAQGKVALEEHFAIPETLQDSAGFVPGDYWKELQHRLLDIQDTRLKLMDAHGIETMILSLNAPAVQAIPDRKKAIEIARRANDVLAEECARRPDRFLAFAALPLQDPDAATQELQRCVNDLGFVGALVNGFSQEGDGQTPLYYDLPQYRPFWGEVEKLDVPFYLHPRNPLPQDSRIYDGHPWLLGPTWAFAQETAVHALRLMASGLFDAHPRLNIILGHMGEGLPYMMWRIDHRNAWVKLPPRYPAKRRFVDYFNENFHITTSGNFRTQTLIDAILEIGADRILFSTDWPFENIDHASDWFNATTIAEADRVKIGRTNARRLFKLDGR
B4: 31 (protein, listed as Agrobacterium sp.)
chain: B3 chain with R71K, K72T, R91K, Q112E, A209E, V251M, T305S, R328A
B5: 32 (protein)
chain: MARIIAIEEHFLDLDIARASRPEAERLSPAFAAAYGAGQGYNYSPAPEVLLDLEEGRVADMDAHGISMQVLSSLSTQQLPADVAVELVRKVNDRAAAAVAARPDRFAAFAALPTTVPEAAADELDRAVGELGFVGSMINGRTGDAFLDAPRFDAVLRRSAELRVPVYLHPGVPPVETSRSNYEGGLDPIVTARLQTSAWGWHVETGIHFLHLVLAGVFDRYPDLQVILGHWGEMVPFFLERIEEALPQQITHLDRPVGAYFRENAHITPSGMFSQAQLQFCVETVGIERIMFSVDYPFLGNDGAEAFLRQANLPPLATEKIAHLNAERLLALPS
modifications: Streptomyces violaceusniger
B6: 29 (protein, listed as Pseudovibrio sp.)
chain: MAGRRDFLRKSVAAGVGLTAAAQLSAGGAQATVPDTSNIPLITLEEHFTTPELQSKNTSGDKRLFSGGGSRPELLDVGAGRIADMDEAGIDIQVLSTVTPGASKITGAEGVEFTRKFNTWIAEEVIAAYPNRFRAFATLPLSSPEAAADELERSVREYGFVGTMTYGPIDGKFLDHADYAPLLARAEALGVPIYIHPNWPSPTAMQAYYDGLGDDLTSRILSGPGYGWHQEIAVQCLRLIVGGVFDRFPNLQIVVGHMGEGLPFYYWRVGEDLDRIAQKRLQKPVQQYFHDNLWITTSAFFRDELLNLALATMGEDRVMFSVDYPMASAKVGADWLRAADIPLATKEKIGSKNAMKLLGIDKI
B7: 2 (protein, listed as Serratia sp.)
chain: MAKIICLEEHTLDKALVMASMPAALEQAPFLSDWGKTVTDGNLPDRSRPQIEKNDLINIKGADIGRGRLDDMDVAGITMQVLSVGGFPHLISAAEGVDLNRAANDRLADAVNAHPDRFAAFATLPWAQPDSAEKELERAVKELGFKGALLNGRPSTHFLDHPDYDGLLARFNALGVPLYLHPGLPVRSVQQAYYGGFSDEVTARLSMFGWGWHHEAGIHLLRLILSGAFDKYPNLQVISGHWGEMLPFWLQRLDDSLPQAATGLRRTIAQTFKEQVYVTPSGMLTLPHFQFIYALLGAERIIFSVDYPYQTLDGVKAFIQSLPVPEEAKEAIAFRNAERLLGLTS
B8: 24 (protein)
chain: MALGKVVLEEAYERPNMKEKSNHEAGLYIAPNDRPRYMRQINDINQERLKLADAHGVGYTIISLTVPGIQGIFDKTEAERVATETNNWAAEQIKNHRDRLGAFACLSMHDPAQAANELRRCVQELGFHGALLCSFQHAGPDGETYLFYDQPKYDVFWKALTELDVPLYIHPAAPTGSILERLYAQRPALIGPPLSFANDVSLHTLGIISNGVFDRFPNLKIIIGHLGEHIPFDFWRIDHWFRDVKKPIADEEGRVMAQKSLYHYFKHNIWLTTSGHFSTPTLKYVVNEIGVDRVLFSVDYPYETTESGCNWWDHDKDAIVEAVGGVDNYYAIGRENAKKLLRLDKFHDSDAR
modifications: Aspergillus niger
B9: 28 (protein, listed as Sphingomonas paucimobilis)
chain: MARLIATEEAVTFQPVVDALRAHSRTDDASLDMILVRDVYGDEPARPAMIGRLSDVTGERLAEMDSNGVDMHLLSLTAPGVQMFDAETGTRLARIANDLMAQTVAANPTRFAGLGTFAPQDPASAAREIERVATQLRLNGLVINSHTNDLYYDDPFFHPVFEAIEASGLALYIHPRAPSKQIDRAFRDYGMNSAIWGYGIETSTNAVRMILSGLFDRFPRLKIVLGHMGEAIPFWLWRLDYMHGNATTFGGAPKLKLKPSEYFRRNFAITTSGVESHAALRYSIEVLGPENVMWAIDYPYQPMAPAVQFIRTAPIPEDVKAMVAGGNAARIFRIT
B10: 25 (protein, listed as Acidovorax avenae)
chain: MAQGKIGLEEHFAIPETLQDSAGFVPGDYWKELSLRLLDIHERRLREMDENGMEMMILSLNAPAVQAIPDTKKAVEIAVRANDFLAEQVARRPDRFQAFAALPMQDPDLATRELERCMQDLGFRGALVNGFSQVGTPENVVYYDAPQYGDFWAAVERLDAPFYLHPRNPIASWAQIYQGHPWLMGPTWAFAQETAVHALRLMASGLFDRHPGLRIILGHLGEGLPYNMWRVDHRNAWVDMPKGYPAKRKLCDYFHENFYLTTSGNFRTQTLIDALLEVGADRILFSTDWPFENVDHAAHWFDDAAISEADRLKIGRTNALSLFKLPQG
B11: 30 (protein)
chain: MARGKIALEEHVSTPENNRLWDSTGEANRNGSEYMQDVERRLLDRSIQLEEMAQRNIDHVILSLTSPGAQSILDKAKAVSFARDTNDFIVDNYVKPNPDKFSAFATLALQNPEAAAEELERAVKKLGMKGALINGYTNVKDSEHGLYLDDESMLVFWDKVNELNVPVYLHPREPLEGPARGIYTGYESLIGSAWGFAQETAVHAIRLMMSGLFDRYPNLNLVLGHLGEGLVHMLPRTQHRLYRQRFGCGLGKAEKPLMHYLQNNFIVTTSGHFNTHSLNNAIEVMGADRVMFSVDYPYEDIHQACDWFDPLEMDEGLKEKIAWGNASRVFNIK
modifications: Enterobacter aerogenes
B12: 27 (protein, listed as Aspergillus oryzae)
chain: MALGKIALEEAFALPRFEEKTRWWASLFSTDAETHVKEITDINKIRIEHADKHGVGYQILSYTAPGVQDIWDPVEAQALAVEINDYIAEQVRVNPDRFGAFATLSMHNPKEAADELRRCVEKYGFKGALVNDTQRAGPDGDDMIFYDNADWDIFWQTCTELDVPFYMHPRNPTGTIYEKLWADRKWLVGPPLSFAHGVSLHVLGMVTNGVFDRHPKLQIIMGHLGEHVPFDMWRINHWFEDRKKLLGLAETCKKTIRDYFAENIWITTSGHFSTTTLNFCMAEVGSDRILFSIDYPFETFSDACEWFDNAELNGTDRLKIGRENAKKLFKLDSYKDSSA
B13: 20 (protein, listed as Legionella pneumophila)
chain: MAIVDFETHFITEACIDYLTQRQEVPKLVPDLNGAYTMCFTPDVSLFHTSALMEELLSLNEQRLAIMDQAGVTIQVLSLTTINGIDSCPGDENKSTALAREVNDQLYSAIQRHPERFKGFASISPYDVKEGVKELERAISQLGFVGWLTHSNFGQDNYLDDKTYWPLLEAAEGLNIPIYLHPNVPIMREFGKYGFALGGSALGFEFDTALCLMRMILGGVFDAFPKLKIMLGHLGETMPFLMERLDHLYRIPDLKAYRPSIQRIPSEVLRQNVYITTSGRFFVPALRYVLEVMGEDRVLFASDYPMESLLDATRFIQDSDLSNQTKQKIFSINAKNLNLI
B14: 22 (protein, listed as Staphylococcus epidermidis)
chain: MAKSINFEEHYVVDDIQKETMKYMSSDPNGVPMQTMLKGLEQKSGFTNADDITKHDERIKFMDEHDVEMQVLSYGNGAPSNLEGERAIELCQQANDTLAKYVNEHPDRFVGFATLPINEPQAAVEEFKRCIKELGFKGALIMGHPKNGFLDQDQYDDLFATAEALNVPIYLHPSPVQSDVYQAYYKGNYSDVTAATFACFGYGWHVDVGIHAIHLVLSGVFDRHPNLNMIIGHWGEFVPFFLERMDDILFADHLEHPISYYFKNNFYITPSGMLTKPQFDLVKAEVGVDRILYSADYPYVEPDKLGTFLDELDLTEEEKEKISYKNGAKLLGLEK

Assay: 14C assay with IPTG-induced recombinant E. coli cells (14CO2 capture from [14C]-carboxyl-labeled dicamba)
Conditions: for Dicamba Decarboxylase Activity: IPTG-induced recombinant E. coli cells, [14C]-carboxyl-labeled dicamba, 14CO2 capture; for Enzymatic Detection level: dicamba decarboxylation activity of the protein of the given SEQ ID NO

Molecule	Dicamba Decarboxylase Activity	Enzymatic Detection level
B1	High	High
B2	Low	Low
B3	High	High
B4	High	High
B5	High	High
B6	No	No
B7	High	High
B8	Low	Low
B9	High	High
B10	Low	Low
B11	High	High
B12	No	No
B13	Low	Low
B14	High	High
